Data published in patent US20190315859A1 (EUREKA THERAPEUTICS, published 2019).

B1: 23 (scFv)
scFv (VL-linker-VH), shown on M13 phage: QSVLTQPPSVSAAPGQKVTISCSGSSSNIGNNYVSWYRQLPGTAPKLLIYENNKRPSGIPDRFSGSKSGTSATLGITGLQTGDEADYYCGTWDSSLRAGVFGTGTKVTVLGSRGGGGSGGGGSGGGGSLEMAQVQLVESGGGLVQPGGSLRLSCAASGFTFSSYAMSWVRQAPGKGLEWVSGISASGGSTYYADSVKGRFTISRDNSKNTLYLQMNSLRAEDTAVYYCARYYLSQIDSWGQGTLVTVSS
notes: hit from protein screening (ELISA); also called clone 23; anti-human CD19 scFv phage clone 23
B2: 40 (scFv)
scFv (VL-linker-VH), shown on M13 phage: EIVMTQSPLSLSVTPGEPASISCRSSQSLLDSNGFNSLDWYLQKPGQSPQLLIHLGSDRASGVPDRFSGSGSGTDFTLKISRVEAEDVGIYYCMQSLQIPTFGQGTKVEIKRSRGGGGSGGGGSGGGGSLEMAQMQLVQSGAEVKKAGSSVKVSCETSGGTFSSSSVNWVRQAPGQGLEWMGGIIPIVGTPNYAQKFQDRVTITAVESTFTAYMELSGLRSEDTAVYYCARGGYRDYMDVWGRGTTVTVSS
notes: hit from protein screening (ELISA); also called clone 40; anti-human CD19 scFv phage clone 40
B3: 36 (scFv)
scFv (VL-linker-VH), shown on M13 phage: DIQLTQSPSSLSAYVGDRVTITCRASQGITNSLAWYQQKPGKAPKLLLHAASRLESGVPSRFSGSGFGTDFTLTISSLQPEDFAVYYCQHYLGTPYSFGQGTKVEIKRSRGGGGSGGGGSGGGGSLEMAEVQLVESGGGLVQPGGSLRLSCAASGFTVSSNYMSWVRQAPGKGLEWVSAISGSGGSTYYADSVKGRFTISRDNSKNTLYLQMNSLRAEDTAVYYCARMNIDYWGQGTLVTVSS
notes: hit from protein screening (ELISA); also called clone 36; anti-human CD19 scFv phage clone 36
B4: 54 (scFv)
scFv (VL-linker-VH), shown on M13 phage: SYVLTQPPSVSVSPGQTASITCSGDKLGDKYASWYQQKPGQSPVLVIYQDNKRPSGIPERFSGSNSGNTATLTISGTQAMDEADYYCQAWDSSTEDVFGPGTKVTVLGSRGGGGSGGGGSGGGGSLEMAEVQLVESGGGLIQPGGSLRLSCAASGFTVSSNYMSWVRQAPGKGLEWVSVIYSGGSTYYADSVKGRFTISRDNSKNTLYLQMNSLRAEDTAVYYCARGGISDDYYGSGSYDNWGQGTLVTVSS
notes: hit from protein screening (ELISA); also called clone 54; anti-human CD19 scFv phage clone 54
B5: 9 (scFv)
scFv (VL-linker-VH), shown on M13 phage: QTVVTQEPSVSAAPGQKVTISCSGSSSNIGNNYVSWYQQLPGTAPKLLIYDNNKRPSGIPDRFSGSKSGTSATLGITGLQTGDEADYYCGTWDSSLSAGVFGTGTKLTVLGSRGGGGSGGGGSGGGGSLEMAQVQLVETGGGLVQPGGSLRLSCAASGFTFSSYAMSWVRQAPGKGLEWVSAISGSGGSTYYADSVKGRFTISRDNSKNTLYLQMNSLRAEDTAVYYCARYYYSRLDYWGQGTLVTVSS
notes: hit from protein screening (ELISA); also called clone 9; anti-human CD19 scFv phage clone 9
B6: 43 (scFv)
scFv (VL-linker-VH), shown on M13 phage: SYELTQPPSASGTPGQRVTISCSGSSSNIGSNYVYWYQQLPGTAPKLLIYRNNQRPSGVPDRFSGSKSGTSASLAISGLRSEDEADYYCAAWDDSLSGYVFGTGTKVTVLGSRGGGGSGGGGSGGGGSLEMAEVQLVESGGGLIQPGGSLRLSCAASGFTVSSNYMSWVRQAPGKGLEWVSVIYSGGSTYYADSVKGRFTISRDNSKNTLYLQMNSLRAEDTAVYYCARGGFGAEFDYWGQGTLVTVSS
notes: hit from protein screening (ELISA); also called clone 43; anti-human CD19 scFv phage clone 43

Key:
[1] = biological target: T1, Recombinant human CD19 ECD-Fc fusion protein (human, UniProt P15391 20-291, biotinylated for the Octet assay (sites not given); not biotinylated when coated for ELISA); assay: ELISA, plate coated with human CD19 ECD-Fc, phage clone detected with HRP-conjugated anti-M13 antibody, OD450
T1 construct: domain: Fc of human IgG1 lacking the CH1 domain and including the hinge region; also called human CD19-Fc; hCD19 ECD-Fc; not shown: Fc of human IgG1 lacking the CH1 domain and including the hinge region
T1 sequence: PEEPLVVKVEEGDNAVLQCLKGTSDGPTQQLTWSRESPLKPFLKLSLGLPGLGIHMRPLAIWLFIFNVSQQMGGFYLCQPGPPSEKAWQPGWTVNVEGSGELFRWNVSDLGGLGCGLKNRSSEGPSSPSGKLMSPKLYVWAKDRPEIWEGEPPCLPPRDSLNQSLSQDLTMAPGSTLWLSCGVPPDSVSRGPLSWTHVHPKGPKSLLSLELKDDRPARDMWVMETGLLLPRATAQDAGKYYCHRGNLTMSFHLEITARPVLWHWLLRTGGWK
Experimental: Individual phage clones from enriched phage display panning pools were incubated in the coated plates. Binding of the phage clones was detected by HRP-conjugated anti-M13 antibodies and developed using HRP substrate. The absorbance was read at 450 nm.

[2] = biological target: T2, human CD19 expressed on the cell surface (native format) (human, UniProt P15391 20-488); assay: flow cytometry, phage clone then mouse anti-M13 antibody then R-PE anti-mouse IgG; CD19+ Raji and 3T3-CD19, CD19- Jurkat and 3T3; MFI
T2 construct: Endogenous on Raji, Jeko-1 and primary human B cells (CD20+CD3- gate); transduced into NIH/3T3 (3T3-CD19); also called hCD19; cell-surface human CD19
T2 sequence: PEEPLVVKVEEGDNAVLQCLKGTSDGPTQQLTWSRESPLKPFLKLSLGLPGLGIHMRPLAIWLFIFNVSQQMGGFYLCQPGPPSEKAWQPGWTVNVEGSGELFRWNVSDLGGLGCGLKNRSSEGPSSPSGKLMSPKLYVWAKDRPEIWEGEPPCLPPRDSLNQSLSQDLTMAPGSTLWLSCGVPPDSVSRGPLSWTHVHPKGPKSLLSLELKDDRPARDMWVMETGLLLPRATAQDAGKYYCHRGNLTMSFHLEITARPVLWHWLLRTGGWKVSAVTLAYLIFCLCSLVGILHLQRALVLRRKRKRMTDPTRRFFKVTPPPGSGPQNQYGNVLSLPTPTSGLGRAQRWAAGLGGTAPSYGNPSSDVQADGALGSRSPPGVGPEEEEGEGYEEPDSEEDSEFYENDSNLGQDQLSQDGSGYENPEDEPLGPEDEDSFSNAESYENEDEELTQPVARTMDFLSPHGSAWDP
Experimental: ELISA-positive phage clones were then tested for cell-surface human CD19 binding by flow cytometry using human CD19-positive Raji and 3T3-hCD19 cell lines, and human CD19 negative Jurkat and 3T3 cell lines (FIG. 1B). Cells were first stained with purified scFv phage clones, followed by mixing with a mouse anti-M13 monoclonal antibody, and finally a R-PE conjugated horse anti-mouse IgG (Vector Labs). Each step of staining was performed between 30-60 minutes on ice and cells were washed twice between stainings. One unique clone, 37, was identified to specifically bound human CD19⁺ Raji and 3T3-CD19 cells and not hCD19⁻ Jurkat and 3T3 (FIG. 1B).

| Binder | binding result [1] | binding result [2] |
| --- | --- | --- |
| B1 | binds | – |
| B2 | – | no binding |
| B3 | binds | – |
| B4 | binds | – |
| B5 | binds | – |
| B6 | binds | – |
